Measurements: PMC4884477

How the values were obtained:
S. aureus Hfq = S. aureus Hfq (Staphylococcus aureus, UniProt A0A0H3JV59 1-77); experiment: fluorescence anisotropy
E. coli Hfq = E. coli Hfq (Escherichia coli, UniProt P0A6X3 1-102); experiment: fluorescence anisotropy

GUGGUCAGUCGAGUGGCUUCCGUCCAUUUCGGACGUUUUUU (structured_RNA) [Cy3-mini-sRNA] gave a Kd (S. aureus Hfq) of 100 nM and a Kd (E. coli Hfq) of 2.7 ± 0.8 nM.
